Measured values as given in paper PMC6107663, “Crystal structure of human Mediator subunit MED23” (Nature Communications, 2018).

Legend:
[1] = molecular target: T1, human MED23 isoform 1, C-terminal 6xHis-tagged (MED23-6His) (human, UniProt Q9ULK4-1); assay: crystal structure; purified MED23 mixed with Nb106 in a 1:1.2 ratio, 1 h at 4 °C; hanging drop vapor diffusion at 20 °C, 10% PEG6000, 100 mM HEPES pH 7.0; one complex in the asymmetric unit; conditions: both partners purified
T1 construct: Mediator subunit MED23, human, isoform 1 (NM_004830.3); A rhinovirus 3C protease site stands between MED23 and the 6xHis tag; no cleavage is described; The DNA encoding isoform 1 was amplified by PCR; the words 'full length' are not used, but the model is called complete except for the last 30 residues; also called recombinant human MED23; source: SF21 cells, baculovirus (Bac-to-Bac), purified …
T1 sequence (Q9ULK4 whole entry, the tested form may be a part, canonical isoform): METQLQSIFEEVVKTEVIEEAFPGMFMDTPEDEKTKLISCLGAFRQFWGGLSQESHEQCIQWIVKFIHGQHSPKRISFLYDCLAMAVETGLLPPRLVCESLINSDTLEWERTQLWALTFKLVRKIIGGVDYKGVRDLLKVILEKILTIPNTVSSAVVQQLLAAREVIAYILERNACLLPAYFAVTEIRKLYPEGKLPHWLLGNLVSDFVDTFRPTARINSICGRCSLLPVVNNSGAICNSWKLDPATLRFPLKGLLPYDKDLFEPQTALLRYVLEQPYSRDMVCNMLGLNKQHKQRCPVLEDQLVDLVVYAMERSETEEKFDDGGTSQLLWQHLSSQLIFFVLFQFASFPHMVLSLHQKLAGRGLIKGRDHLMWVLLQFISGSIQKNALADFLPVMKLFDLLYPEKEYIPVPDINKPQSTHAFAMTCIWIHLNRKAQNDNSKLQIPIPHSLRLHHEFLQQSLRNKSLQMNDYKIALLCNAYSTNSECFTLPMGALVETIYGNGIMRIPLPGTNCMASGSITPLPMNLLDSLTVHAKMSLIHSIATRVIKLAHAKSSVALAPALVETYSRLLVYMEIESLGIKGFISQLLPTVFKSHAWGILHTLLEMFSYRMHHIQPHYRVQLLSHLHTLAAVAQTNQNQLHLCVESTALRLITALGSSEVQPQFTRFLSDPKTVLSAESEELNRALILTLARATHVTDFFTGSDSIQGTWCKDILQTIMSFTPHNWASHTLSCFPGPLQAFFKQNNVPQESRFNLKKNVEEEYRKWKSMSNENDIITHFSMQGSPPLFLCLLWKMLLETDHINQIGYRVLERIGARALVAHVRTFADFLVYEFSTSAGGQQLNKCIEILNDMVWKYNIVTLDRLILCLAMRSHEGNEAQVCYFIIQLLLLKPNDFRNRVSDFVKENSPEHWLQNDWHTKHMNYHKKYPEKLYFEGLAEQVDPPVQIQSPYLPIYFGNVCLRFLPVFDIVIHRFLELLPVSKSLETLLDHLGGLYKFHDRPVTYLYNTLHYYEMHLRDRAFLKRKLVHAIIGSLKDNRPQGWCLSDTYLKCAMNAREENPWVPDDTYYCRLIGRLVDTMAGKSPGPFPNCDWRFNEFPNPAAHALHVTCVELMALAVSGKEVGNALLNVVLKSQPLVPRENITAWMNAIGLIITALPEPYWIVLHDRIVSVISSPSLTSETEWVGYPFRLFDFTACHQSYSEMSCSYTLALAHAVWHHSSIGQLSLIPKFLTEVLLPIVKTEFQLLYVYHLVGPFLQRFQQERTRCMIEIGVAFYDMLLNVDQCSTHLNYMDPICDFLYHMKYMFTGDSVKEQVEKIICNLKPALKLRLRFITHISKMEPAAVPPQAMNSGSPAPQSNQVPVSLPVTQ

[2] = molecular target: T2, MED23, endogenous, incorporated within the Mediator complex (human (endogenous in HEK-293), UniProt Q9ULK4); assay: co-IP; HEK-293 lysate (50 mM Tris/HCl pH 8, 250 mM NaCl, 0.1% Igepal CA-630) incubated with 2 µg of Nb106 overnight at 4 °C; fished with CaptureSelect C-tag Affinity Matrix; western blot; conditions: one partner purified
T2 construct: Mediator subunit MED23, human, endogenous; source: endogenous, HEK-293 lysate
T2 sequence (Q9ULK4 whole entry, one chain of several): as the sequence (Q9ULK4 whole entry, the tested form may be a part, canonical isoform) above

B1: nanobody Nb106 (VHH)
VHH: QVQLVESGGGLVQAGASLRLSCAVSGRTGSIYTMGWFRQAPGKEREVVARTTWTPGSTKYADSVKGRVAISRDIAKNTLYLQMNNLKPEDTAVYYCAACAYGTCYYGDRAYEYWGQGTQVTVSS
notes: A related nanobody (PDB 5IMK) was used to fit the density; it is not Nb106; also called lama nanobody; source: E. coli WK6, periplasmic extract, purified (Ni-NTA, Superdex 75)
- binding result [1]: binds
- binding result [2]: binds
